Measured values taken from PMC5046194.

Molecular target: recombinant Ku70 (human) (UniProt P12956)
Assay: not stated; complex of recombinant Ku70 and IN; method of the Kd not told

UniProt P12956, sequence (P12956 whole entry): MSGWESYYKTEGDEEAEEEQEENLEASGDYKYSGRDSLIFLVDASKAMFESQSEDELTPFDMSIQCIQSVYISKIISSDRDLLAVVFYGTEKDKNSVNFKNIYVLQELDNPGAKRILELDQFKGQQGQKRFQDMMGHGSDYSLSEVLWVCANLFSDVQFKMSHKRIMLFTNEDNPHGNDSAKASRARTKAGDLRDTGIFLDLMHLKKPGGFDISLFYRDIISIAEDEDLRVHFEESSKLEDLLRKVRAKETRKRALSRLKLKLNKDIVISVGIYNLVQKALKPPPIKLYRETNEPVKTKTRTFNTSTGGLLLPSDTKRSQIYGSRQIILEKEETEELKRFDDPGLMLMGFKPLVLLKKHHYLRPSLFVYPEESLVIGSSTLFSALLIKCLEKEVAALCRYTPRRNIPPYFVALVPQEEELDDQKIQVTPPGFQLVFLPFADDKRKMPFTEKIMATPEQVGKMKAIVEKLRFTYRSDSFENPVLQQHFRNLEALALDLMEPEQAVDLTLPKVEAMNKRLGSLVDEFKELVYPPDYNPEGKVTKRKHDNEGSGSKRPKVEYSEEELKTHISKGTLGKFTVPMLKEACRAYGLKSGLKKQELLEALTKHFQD

recombinant His6-IN, wild type (HIV-1 integrase, abstract P13) (enzyme)
Kd: 70 nM
